Paper PMC3828196 (PLoS ONE, 2013)
“Also recorded” adds a separate entry of the source. Read-outs that look alike come from different tables or passages of the source.

Key:
[1] = In vitro peptide dithiol oxidation (europium fluorescence); format: biochemical; conditions: samples lacking EcDsbB, DsbA plus peptide; pH 5.5; time-resolved fluorescence
Description: A peptide ([…]) with a 1,4,7,10-tetraazacyclododecane-1,4,7,10-tetraacetic acid (DOTA) group amide-coupled to the N-terminus, and a methylcoumarin amide-coupled to the ε-amino group of the C-terminal lysine, was purchased from AnaSpec (Fremont, CA). Lyophilized peptide was re-suspended in 100 mM imidazole, pH 6, at a concentration of 2 mM. Europium trifluoromethanesulfonate (Sigma Aldrich, Australia) solution (100 mM) was added to the peptide at a molar ratio of 2:1 and incubated for 5 min at room temperature, to allow europium chelation. The peptide solution was then immediately aliquoted, flash frozen in liquid nitrogen and stored at -80°C. An increase in fluorescence occurs upon oxidation of the peptide cysteines to form a disulfide. Thus, fluorescence can be used to monitor the capacity of DsbA enzymes to catalyse dithiol oxidation.
Assays were conducted using a Synergy H1 multimode plate reader (BioTek, USA) with the excitation wavelength set to 340 nm and emission to 615 nm. A 150 μs delay before reading and 100 μs reading time were used for time-resolved fluorescence. The assay was performed in a white 384-well plate (Perkin Elmer OptiPlate-384, Part #: 6007290). The buffer consisted of 50 mM MES, 50 mM NaCl and 2 mM EDTA at pH 5.5. The reaction consisted of a 50 μL solution in each well, containing 160 nM EcDsbA, KpDsbA or SeDsbA, 1.6 μM EcDsbB (crude membrane extracts, containing ubiquinone) and 8 μM peptide substrate added last to initiate the reaction. Samples containing buffer and DsbA or buffer and peptide were used as controls. Data were measured for three replicates and are presented as mean values, with the standard error of the mean indicated by error bars.

[2] = system: E. coli dsbA- null (JCB817); assay: Complementation swarming assay, dsbA- null strain JCB817; conditions: pBAD33, arabinose-induced; soft M63 minimal agar, 37 °C, 3-7 h; biological triplicates
Description: The ability of KpDsbA to rescue non-motile E. coli dsbA ^- null (JCB817) and dsbA ^-/dsbB ^- double-null (JCB818) strains was assessed in a cell-swarming assay as described previously [16]. The mature KpDsbA coding sequence was cloned into pBAD33 under an arabinose inducible promotor with the EcDsbA periplasmic signal sequence. A wild-type EcDsbA cloned into pBAD33 vector was used as a positive control. Non-motile E. coli dsbA ^- deficient (JCB817) or dsbA ^- / dsbB ^- double-mutant (JCB818) [3] cells (2x10^6) transformed with a KpDsbA or EcDsbA pBAD33 inducible vector were spotted onto the center of a soft M63 minimal agar plate containing 40 mg/mL of each amino acid (except L-cysteine). Plates were incubated at 37 °C and motility of cells monitored using a Molecular Imager® Gel Doc™ system from BIO-RAD (CA 94547, USA) after 3-7 h. Complementation experiments were repeated as biological triplicates.

[3] = EcDsbA, cited from earlier work
Excerpt: The past 5 years has seen the characterization of DsbA enzymes from many other bacteria including DsbAs with varying degrees of sequence identity to EcDsbA such as Neisseria meningitidis DsbA1 (NmDsbA1, 23% identity), Pseudomonas aerugin ... || EcDsbA and SeDsbA share 86 % sequence identity and both have been characterized previously. […] Both are similarly oxidizing enzymes: the redox potentials of EcDsbA and SeDsbA are -122 and -126 mV, respectively, whereas the range for all DsbAs is -80 to -163 mV (Table 1 ). In b ... || (+ 1 further places)

insulin [4] = assay: Insulin disulfide reductase activity; format: biochemical; conditions: 10 μM enzyme, 0.33 mM DTT, 2 mM EDTA, 100 mM phosphate pH 7.0, 0.131 mM insulin; OD650nm turbidity; three repeats
Description: Under mild reducing conditions, DsbA proteins can reduce the intermolecular disulfide bonds formed between insulin chains A and B [3]. The rate of disulfide bond reduction can be spectroscopically followed at OD650nm by an increase in turbidity resulting from production of the insoluble insulin chain B [20]. Samples were prepared in 1 cm cuvettes containing 10 μM of protein (KpDsbA, EcDsbA or EcDsbC), 0.33 mM DTT and 2 mM EDTA in 100 mM NaH2PO4 / Na2HPO4 titrated to pH 7.0. Catalysis was initiated by the addition of 0.131 mM insulin (I0516, Sigma-Aldrich, Australia) to the sample mixture. The assay was repeated three times and data were plotted showing standard deviations.

insulin [5] = conditions: cited from earlier work

B1: EcDsbA: Escherichia coli DsbA (CAA56736) (protein)
chain: AQYEDGKQYTTLEKPVAGAPQVLEFFSFFCPHCYQFEEVLHISDNVKKKLPEGVKMTKYHVNFMGGDLGKDLTQAWAVAMALGVEDKVTVPLFEGVQKTQTIRSASDIRDVFINAGIKGEEYDAAWNSFVVKSLVAQQEKAAADVQLRGVPAMFVNGKYQLNPQGMDTSNMDVFVQQYADTVKYLSEKK
For B1, the “dithiol oxidation signal without EcDsbB” value [1] is listed as “no increase in signal”, the “restoration of motility (swarming)” value [2] is listed as “can rescue the swarming” and the “E°’ (redox potential)” value ([3]; Table 1, ref [6], [14]) is listed as -122 mV. The Tm oxidized ([3]; Table 1, ref [6], [14]) was 341 K, the Tm reduced ([3]; Table 1, ref [6], [14]) was 350 K and the “pKa “Cys30”” value ([3]; Table 1 and comparison, ref [6], [14]) was 3.3. For the same molecule, the “pKa of nucleophilic cysteine” value ([3]; introduction, ref [9]) was 3.3, the Tm oxidized ([3]; with spread, ref [7]) was 341.7 ± 0.2 K and the Tm reduced ([3]; with spread, ref [7]) was 350.9 ± 0.2 K. The “pKa of nucleophilic cysteine” value ([3]; ref [7]) was 3.3, the redox potential ([3]; ref [9]) was -122 mV and the Tm oxidized ([3]; ref [13]) was 341 K. The Tm reduced ([3]; ref [13]) was 350 K, the “insulin disulfide reductase activity” value (insulin [4]) was “weak insulin reductase activity” and the insulin reductase activity (insulin [5]) was “weak disulfide reductants; also recorded: weak insulin reductase activity”.
